The experiment deals with HK-2 cells. As to the kind of experiment: HK-2 cell cisplatin toxicity (WST-1 viability, western blot). Particulars: 20 μM cisplatin, 24 hrs. Type of experiment: cell-based, human. As for the experimental part:
Cultured HK-2 cells were incubated with 20 μM cisplatin for 24 hours with and without recombinant renalase. Renalase expression was examined by Western blot and cell viability (mitochondrial integrity) was determined spectrophotometrically using WST-1, a tetrazolium salt that is cleaved, by mitochondrial dehydrogenases of metabolically active and viable cells, to formazan (420-480 nm) (Boehringer Mannheim, Germany).
HK2 cells (human proximal tubular line) obtained from ATTC (Manassas, Va., USA) were cultured in DMEM/F12 supplemented with glutamine, 10% FBS and antibiotics, and were maintained at 37° C. in 5% CO2. Cells were exposed to cisplatin (20 μM) in the presence or absence of renalase for 24 hrs, and cell viability was assessed by the WST1 method (Roche Applied Science, Germany). Cells were then harvested in RIPA buffer (20 mM Tris-HCl pH 7.5, 150 mM NaCl, 1 mM Na2EDTA, 1 mM EGTA, 1% NP-40, 1% sodium deoxycholate, 2.5 mM sodium pyrophosphate, 1 mM β-glycerophosphate, 1 mM Na3VO4, 1 μg/ml leupeptin) supplemented with a protease and phosphatase inhibitor cocktail (Roche Applied Science, Germany). Proteins were separated by SDS-PAGE and Western blotting was carried out using the following antibodies: anti-renalase monoclonal (Desir et al., 2012, J Am Heart Assoc. 1:e002634; (Lee et al., 2013, J Am Soc Nephrol 24:445-455); anti caspase 3 (Cell Signaling Technology, MA, USA) and anti Bcl2 (Thermo Scientific, USA). Necrotic injury in HK-2 cells (ATCC, Manassas, Va.) was induced with exposure to 2 mM H2O2 for 2-8 hr and lactate dehydrogenase (LDH) released into cell culture media was measured as described using a commercial LDH assay kit (Promega, Madison, Wis.) (Lee and Emala, 2002, American journal of physiology. Renal physiology 282:F844-852).

These results are taken from patent US10066025B2, “Compositions and methods for detecting, treating and preventing diseases and disorders” (YALE UNIVERSITY, priority 2012, dated 2018).

B1: recombinant renalase: human recombinant renalase, 38 kDa FAD-dependent amine oxidase; renalase polypeptide SEQ ID NO: 9 or 10 (protein, UniProt Q5VYX0 18-342, looked up)
Renalase: ALLRRQTSGPLYLAVWDKAEDSGGRMTTACSPHNPQCTADLGAQYITCTPHYAKKHQRFYDELLAYGVLRPLSSPIEGMVMKEGDCNFVAPQGISSIIKHYLKESGAEVYFRHRVTQINLRDDKWEVSKQTGSPEQFDLIVLTMPVPEILQLQGDITTLISECQRQQLEAVSYSSRYALGLFYEAGTKIDVPWAGQYITSNPCIRFVSIDNKKRNIESSEIGPSLVIHTTVPFGVTYLEHSIEDVQELVFQQLENILPGLPQPIATKCQKWRHSQVTNAAANCPGQMTLHHKPFLACGGDGFTQSNFDGCITSALCVLEALKNYI
In the case of B1, the “cell survival / protection against cisplatin toxicity” value is “improved HK-2 cell survival”. Also, where the note is “listed as exogenous renalase”, the “cell survival / protection against cisplatin toxicity” value is listed as “reversed”. In addition, under “western blot”, the Bcl-2 expression result is listed as “increased Bcl-2 expression”, the caspase-3 activation result is listed as “decreased caspase-3 activation” and the cellular renalase expression entry is “restored cellular renalase expression”. In addition, the caspase-3 activation result (western blot, listed as Renalase) is “inhibited caspase-3 activation”.
